Assay results as given in patent CN112759647A.
Residue numbers refer to the chain shown, from its start.

B1: 鼠抗体13C9 (antibody, from another filing, V domains shown)
VH: QVQLKQSGAGLVKPGASVKLSCKASGYIFTEYIIHWVKQRSGQGLEWIGWFYPGSDNIKYNEKFKDKATLTADKSSSTVYMELSRLTSEDSAVYFCARHETGYFFDYWGQGTTLTVSS
VL: DIVITQSPAIMSASPGEKVTMTCSASSSVSKMNWYQQKSGTSPKRWIYDTSKLASGVPSRFSGSGSGTSYSLTISSMEAEDAATYYCQQWSSNPLTFGSGTKLELKR
B2: 鼠抗体8A2 (antibody, from another filing, V domains shown)
VH: QVQLKQSGPGLVAPSQSLSITCTVSGFSLTGYGVNWVRQPPGKGLEWLGKIWGDGITDYNSALKSRLSISKDNSKSQVFLKMNSLQTDDTARYYCARDVMDYWGQGTSVTVSS
VL: QIVLTQSPAIMSASPGEKVTMTCSASSSISYMHWYQQKPGTSPKRWIYDTSKLASGVPARFSGSESGTSYSLTISSMEAEDAATYYCHHRSPYPTFGAGTKLELK
B3: 鼠抗体15G10 (antibody, from another filing, V domains shown)
VH: QVQLKQSGPELVKPGASVKTSCKASGYTFTNYVVHWVKQNPGQGLEWIGYVNPNNDGTIFNEKFKDKAILTSDKSSSTAYMELSSLTSEDSAVYYCARSPFAHWGQGTLVTVSA
VL: QIVLTQSPASLTVSLGQRATISCSASESVDFYGTSLMQWFQQKPGQPPKLLVYTASNVDSEVPARFSGSGSGTDFSLNIHPVEEDDIAMYFCHQTRKVPYTFGGGTKLEIK
B4: 鼠抗体28B1 (antibody, from another filing, V domains shown)
VH: QVQLKQSGAELVKPGASVMLSCTASAFNIDDTYIHWVKQRPEQGLEWIGRIDPANGNTDYDPECQGKATITTDMSSNTAYLQLSSLTSEDTAVYFCARGLRLPGLVYWGRGTLVTVSA
VL: DIQMTQTTSSLSASLGDRVTISCRASQDISNYLNWYQQKPDGTVKLLIYYTSILYSGVPSRFSGSGSGTDYSLTINTLEEEDIATYFCQQGNTLPWTFGGGTKLEIIR
B5: 鼠抗体22B10 (antibody, from another filing, V domains shown)
VH: QVQLKQSGAELVKPGASVELSCTASGFNIEDTYLHWVNQRPEQGLEWIGRIDPANGNTYYDPKFQGKATITTDTSSNTAYLQLSRLTSEDTAVYYCARGLRLPGFPYWGQGTLVTVSA
VL: B4 VL with T8P, N34S, Y55H, T74A, N76S, T77N, E79D, E80Q, I107K

Each binder was assayed against 人PD-L1 on 293T-h-PDL1 cells (HEK293 stably expressing PD-L1) (human) (UniProt Q9NZQ7) (assay: FACS, antibody on 293T-h-PDL1 cells).
B1 was tested, and the EC50 was 0.49 µg/mL.

These binders were tested against 人PD-L1 on 293T-h-PDL1 cells (HEK293 stably expressing PD-L1) (human) (UniProt Q9NZQ7) (assay: FACS, hybridoma supernatant on 293T-h-PDL1 cells).
Binder B1 has an EC50 of 0.44 µg/mL.
B2 gave an EC50 of 0.336 µg/mL.
B3 gave an EC50 of 1.45 µg/mL.
For B4, the EC50 was 0.39 µg/mL.
In the case of B5, the EC50 is reported as 0.517 µg/mL.

What follows are binders tested against 人PD-L1胞外区与人IgG1-FC的融合蛋白 (human) (UniProt Q9NZQ7) (assay: FACS blocking: supernatant premixed with 500 ng PD-L1-hFc; competitor PD-1 on 293T-h-PD1 cells).
For B1, the IC50 was 1.95 µg/mL.
Work on B2 yielded an IC50 of 5.17 µg/mL.
B3 showed an IC50 of 4 µg/mL.
Work on B4 yielded an IC50 of 2.31 µg/mL.
B5 was tested, and the IC50 was 4.31 µg/mL.
